Common to all, as to assay: cell-based or functional assay
Experiment [1] has as its target T1, FPRL-1 (formyl peptide receptor like-1) receptor (human, UniProt P25090 1-351).
T1 sequence: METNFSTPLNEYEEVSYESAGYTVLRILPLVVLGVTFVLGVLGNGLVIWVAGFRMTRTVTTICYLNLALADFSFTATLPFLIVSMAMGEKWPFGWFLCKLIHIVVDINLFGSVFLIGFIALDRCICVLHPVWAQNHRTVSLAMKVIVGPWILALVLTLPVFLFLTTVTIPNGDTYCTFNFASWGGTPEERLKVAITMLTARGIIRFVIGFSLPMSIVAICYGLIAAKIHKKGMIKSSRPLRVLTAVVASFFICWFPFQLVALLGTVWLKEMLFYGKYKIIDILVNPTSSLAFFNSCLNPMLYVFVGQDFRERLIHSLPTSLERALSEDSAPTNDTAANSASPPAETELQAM

Experiment [2] has as its target T1, FPRL-1 (formyl peptide receptor like-1) …. The source holds these as a separate data set.
Experiment [3] has the same target. The source holds these as a separate data set.
For experiment [4] the target is unchanged. The source holds these as a separate data set.

No end group written: not given here.

On to WKYMVM (not fully specified (residue 6)) [W-peptide], for which the “Expression of TNFα in MonoMac 6 cells, fold induction at 3 h, W-peptide (1 µM)” value in experiment [1] was 1.03 fold induction. In addition, in experiment [2], the “Migration Index of MonoMac6 cells, W-peptide (10 nM)” value is 0.95 migration index (fold over control medium); the “Migration Index of MonoMac6 cells, W-peptide (100 nM)” value is 1.23 migration index (fold over control medium); the “Migration Index of MonoMac6 cells, W-peptide (1 µM)” value was 2.46 migration index (fold over control medium). In experiment [3], the “Expression of IL-8 in MonoMac 6 cells, fold induction at 3 h, W-peptide (1 µM)” value came to 1.54 fold induction. In experiment [4], the “Expression of MMP-12 in MonoMac 6 cells, fold induction at 3 h, W-peptide (1 µM)” value was found to be 1.51 fold induction.

The values are drawn from patent publication US20020119494A1 (Boehringer Ingelheim, published 2002).
